One data set concerns T1, 1A-K1L12.
T1 construct: gene Kif1a; fused to D. melanogaster KHC neck-coil for dimerization; C-terminal His6; E. coli
The data set can be described thus: stopped-flow ATP-triggered half-site release of mant-ADP. The following applies: taxol-stabilized microtubules; 1HB complex with mant-ADP; Mg-ATP varied; half-maximal ATP for mant-ADP release, not steady-state ATPase. Type of data set: biochemical, Rattus norvegicus.

Substrate in data set [1]: Nc1ncnc2c1ncn2[C@@H]1O[C@H](COP(=O)(O)OP(=O)(O)OP(=O)(O)O)[C@@H](O)[C@H]1O
Described as above. The following applies: taxol-stabilized microtubules; 1HB complex with mant-ADP; Mg-ATP varied; half-maximal ATP for mant-ADP release, not steady-state ATPase. The data set is classed as biochemical, Rattus norvegicus.

The Km is the substrate concentration at which the rate is half of its maximum. For the molecule `Nc1ncnc2c1ncn2[C@@H]1O[C@H](COP(=O)(O)OP(=O)(O)OP(=O)(O)O)[C@@H](O)[C@H]1O` [ATP], the Km in the data set on 1A-K1L12 is 64 ± 28 µM.

B1: 1A368 (Rattus norvegicus) (protein)
chain: MAGASVKVAVRVRPFNSREMSRDSKCIIQMSGSTTTIVNPKQPKETPKSFSFDYSYWSHTSPEDINYASQKQVYRDIGEEMLQHAFEGYNVCIFAYGQTGAGKSYTMMGKQEKDQQGIIPQLCEDLFSRINDTTNDNMSYSVEVSYMEIYCERVRDLLNPKNKGNLRVREHPLLGPYVEDLSKLAVTSYNDIQDLMDSGNKARTVAATNMNETSSRSHAVFNIIFTQKRHDAETNITTEKVSKISLVDLAGSERADSTGAKGTRLKEGANINKSLTTLGKVISALAEMDSGPNKNKKKKKTDFIPYRDSVLTWLLRENLGGNSRTAMVAALSPADINYDETLSTLRYADRAKQIRCNAIINEDPNNKL
notes: KIF1A 1-368 (motor, neck linker) fused to D. melanogaster KHC neck-coil 345-406 for dimerization (biochemical version; 345-560 plus GFP for single-molecule); C-terminal His6; E. coli; dimer
On to B1, for which the Km in data set [1] was determined as 119 ± 20 µM.

B2: 1A393 (Rattus norvegicus) (protein)
chain: MAGASVKVAVRVRPFNSREMSRDSKCIIQMSGSTTTIVNPKQPKETPKSFSFDYSYWSHTSPEDINYASQKQVYRDIGEEMLQHAFEGYNVCIFAYGQTGAGKSYTMMGKQEKDQQGIIPQLCEDLFSRINDTTNDNMSYSVEVSYMEIYCERVRDLLNPKNKGNLRVREHPLLGPYVEDLSKLAVTSYNDIQDLMDSGNKARTVAATNMNETSSRSHAVFNIIFTQKRHDAETNITTEKVSKISLVDLAGSERADSTGAKGTRLKEGANINKSLTTLGKVISALAEMDSGPNKNKKKKKTDFIPYRDSVLTWLLRENLGGNSRTAMVAALSPADINYDETLSTLRYADRAKQIRCNAIINEDPNNKLIRELKDEVTRLRDLLYAQGLGDITD
notes: KIF1A 1-393 (motor, neck linker, neck-coil) fused to D. melanogaster KHC neck-coil 345-406 for dimerization (biochemical version; 345-560 plus GFP for single-molecule); C-terminal His6; E. coli; dimer
As for B2, the Km in data set [1] stood at 96 ± 53 µM.

For the origin of these results see publication PMC9871336, “Positive charge in the K-loop of the kinesin-3 motor KIF1A regulates superprocessivity by enhancing microtubule affinity in the one-head–bound state” (The Journal of Biological Chemistry, 2022).
